According to article PMC10136936:

Biological target: Recombinant hemagglutinin from influenza A/California/04/2009 (H1N1), amino acids 1-519 (Influenza A/California/04/2009 (H1N1)) (UniProt C3W5S1)
Experiment: SEC

“Recombinant hemagglutinin from influenza A/California/04/2009 (H1N1), amino acids 1-519 (from UniProt C3W5S1 1-519) (domain or fragment)” was tested. Which stoichiometry N did it give?
Its stoichiometry N is 3.
